Source: patent US20090117104A1 (published 2009)
Ends that are not written are not given here.

T1: mutated human GLP-2R (human, UniProt O95838 1-553)
T1 chain: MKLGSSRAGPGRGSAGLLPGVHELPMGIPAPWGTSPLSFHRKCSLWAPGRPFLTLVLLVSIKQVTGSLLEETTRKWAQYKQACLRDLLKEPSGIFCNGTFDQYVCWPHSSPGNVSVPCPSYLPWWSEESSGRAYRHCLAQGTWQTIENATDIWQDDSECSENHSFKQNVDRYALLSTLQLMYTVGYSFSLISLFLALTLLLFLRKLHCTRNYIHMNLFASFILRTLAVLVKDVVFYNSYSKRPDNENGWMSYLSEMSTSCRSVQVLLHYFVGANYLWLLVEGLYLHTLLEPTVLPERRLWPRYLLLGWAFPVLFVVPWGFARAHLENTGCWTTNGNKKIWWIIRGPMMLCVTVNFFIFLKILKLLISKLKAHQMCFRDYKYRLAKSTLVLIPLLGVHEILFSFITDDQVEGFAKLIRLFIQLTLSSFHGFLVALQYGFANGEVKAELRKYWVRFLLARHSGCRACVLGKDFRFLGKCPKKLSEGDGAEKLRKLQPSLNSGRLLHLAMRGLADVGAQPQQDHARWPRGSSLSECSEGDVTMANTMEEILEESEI


These binders were tested against mutated human GLP-2R (human) (UniProt O95838) (assay: cell-based or functional assay).

EC50 (nM), cAMP expression assay [nM]	Binder
4.6	A2G GLP-2 mimetibody linker length variant, SEQ ID NO: 9 (Fc fusion, not shown: a dimerising Fc or GST, cysteine pairing not given here; also: mimetibody: followed by CH2-CH3 domains not given here) HGDGSFSDEMNTILDNLAARDFINWLIQTKITDGGGGSGGGGSGGGGSGGGGSCPPCP
2.1	A2G GLP-2 mimetibody linker length variant, SEQ ID NO: 10 (Fc fusion, not shown: a dimerising Fc or GST) HGDGSFSDEMNTILDNLAARDFINWLIQTKITDGGGGSGGGGSGGGGSGGGGSGGGGSCPPCP
12.7	A2G GLP-2 mimetibody linker length variant, SEQ ID NO: 8 (Fc fusion, not shown: a dimerising Fc or GST, cysteine pairing not given here; also: mimetibody: followed by CH2-CH3 domains not given here) HGDGSFSDEMNTILDNLAARDFINWLIQTKITDGGGGSGGGGSGGGGSCPPCP
22.5	HGDGSFSDEMNTILDNLAARDFINWLIQTKITDGGGGSGGGGSCPPCP (Fc fusion, not shown: a dimerising Fc or GST, cysteine pairing not given here; also: mimetibody: followed by CH2-CH3 domains not given here) [A2G GLP-2 mimetibody linker length variant, SEQ ID NO: 7]
3.6	GLP-2 mimetibody Pro substitution variant, SEQ ID NO: 42 (Fc fusion, not shown: a dimerising Fc or GST) HGDGSFSDEMNTILDNLAARDFINWLIQTKITDGSGGGSGALVPVSSESKYGPPCPPCP
7.7	GLP-2 mimetibody Pro substitution variant, SEQ ID NO: 44 (Fc fusion, not shown: a dimerising Fc or GST) HGDGSFSDEMNTILDNLAARDFINWLIQTKITDGSGGGSGALVAVSPESKYGPPCPPCP
5.8	GLP-2 mimetibody Pro substitution variant, SEQ ID NO: 45 (Fc fusion, not shown: a dimerising Fc or GST) HGDGSFSDEMNTILDNLAARDFINWLIQTKITDGSGGGSGALVAVSSESKPGPPCPPCP
4.8	GLP-2 mimetibody Pro substitution variant, SEQ ID NO: 43 (Fc fusion, not shown: a dimerising Fc or GST) HGDGSFSDEMNTILDNLAARDFINWLIQTKITDGSGGGSGALVAVPSESKYGPPCPPCP
40	HGDGSFSDEMNTILDNLAARDFINWLIQTKITDGGGGSCPPCP (Fc fusion, not shown: a dimerising Fc or GST, cysteine pairing not given here; also: mimetibody: followed by CH2-CH3 domains not given here) [A2G GLP-2 mimetibody linker length variant, SEQ ID NO: 6]

Target: T1, mutated human GLP-2R
Assay: cell-based or functional assay

activity in the cAMP expression assay relative to wild type GLP-2 [fold less]	potency in the cAMP expression assay relative to the corresponding peptide [fold less]	Binder
2	–	HGDGSFSDEMNTILDGQAARDFINWLIQTKITD [GLP-2(A2G, N16G, L17Q)]
3	–	HGDGSFSDEMNTILDNQAARDFINWLIQTKITD [GLP-2(A2G, L17Q)]
–	~4	A2S GLP-2 IgG4 mimetibody (Fc fusion) HSDGSFSDEMNTILDNLAARDFINWLIQTKITDGSGGGSGTLVTVSSESKYGPPCPPCPAPEAAGGPSVFLFPPKPDTLMISRTPEVTCVVVDVSQEDPEVQFNWYVDGVEVHNAKTKPREEQFNSTYRVVSVLTVLHQDWLNGKEYKCKVSNKGLPSSIEKTISKAKGQPREPQVYTLPPSQEEMTKNQVSLTCLVKGFYPSDIAVEWESNGQPENNYKTTPPVLDSDGSFFLYSRLTVDKSRWQEGNVFSCSVMHEALHNHYTQKSLSLSLGK
